According to IntAct's records for PubMed 29039417:

B1: BBSome-interacting protein 1 (Homo sapiens), A8MTZ0 (parent)
chain: MLKAAAKRPELSGKNTISNNSDMAEVKSMFREVLPKQGPLFVEDIMTMVLCKPKLLPLKSLTLEKLEKMHQAAQNTIRQQEMAEKDQRQITH
partner: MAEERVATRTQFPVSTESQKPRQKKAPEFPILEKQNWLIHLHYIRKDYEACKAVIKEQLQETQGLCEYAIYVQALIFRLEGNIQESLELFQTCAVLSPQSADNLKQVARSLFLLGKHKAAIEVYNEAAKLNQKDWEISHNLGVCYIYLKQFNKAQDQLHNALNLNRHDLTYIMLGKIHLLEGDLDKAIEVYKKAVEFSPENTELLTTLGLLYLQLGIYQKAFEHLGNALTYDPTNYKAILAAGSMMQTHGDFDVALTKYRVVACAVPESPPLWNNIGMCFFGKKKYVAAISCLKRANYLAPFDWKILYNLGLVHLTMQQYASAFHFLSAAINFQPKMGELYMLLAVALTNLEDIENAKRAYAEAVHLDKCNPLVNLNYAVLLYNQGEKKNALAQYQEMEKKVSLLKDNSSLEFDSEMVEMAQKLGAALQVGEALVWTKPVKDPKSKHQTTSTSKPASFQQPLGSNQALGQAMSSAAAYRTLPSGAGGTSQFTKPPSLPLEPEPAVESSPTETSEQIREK
B2: BBSome complex member BBS1 (Homo sapiens), Q8NFJ9 (parent)
chain: MAAASSSDSDACGAESNEANSKWLDAHYDPMANIHTFSACLALADLHGDGEYKLVVGDLGPGGQQPRLKVLKGPLVMTESPLPALPAAAATFLMEQHEPRTPALALASGPCVYVYKNLRPYFKFSLPQLPPNPLEQDLWNQAKEDRIDPLTLKEMLESIRETAEEPLSIQSLRFLQLELSEMEAFVNQHKSNSIKRQTVITTMTTLKKNLADEDAVSCLVLGTENKELLVLDPEAFTILAKMSLPSVPVFLEVSGQFDVEFRLAAACRNGNIYILRRDSKHPKYCIELSAQPVGLIRVHKVLVVGSTQDSLHGFTHKGKKLWTVQMPAAILTMNLLEQHSRGLQAVMAGLANGEVRIYRDKALLNVIHTPDAVTSLCFGRYGREDNTLIMTTRGGGLIIKILKRTAVFVEGGSEVGPPPAQAMKLNVPRKTRLYVDQTLREREAGTAMHRAFQTDLYLLRLRAARAYLQALESSLSPLSTTAREPLKLHAVVQGLGPTFKLTLHLQNTSTTRPVLGLLVCFLYNEALYSLPRAFFKVPLLVPGLNYPLETFVESLSNKGISDIIKVLVLREGQSAPLLSAHVNMPGSEGLAAA
partner: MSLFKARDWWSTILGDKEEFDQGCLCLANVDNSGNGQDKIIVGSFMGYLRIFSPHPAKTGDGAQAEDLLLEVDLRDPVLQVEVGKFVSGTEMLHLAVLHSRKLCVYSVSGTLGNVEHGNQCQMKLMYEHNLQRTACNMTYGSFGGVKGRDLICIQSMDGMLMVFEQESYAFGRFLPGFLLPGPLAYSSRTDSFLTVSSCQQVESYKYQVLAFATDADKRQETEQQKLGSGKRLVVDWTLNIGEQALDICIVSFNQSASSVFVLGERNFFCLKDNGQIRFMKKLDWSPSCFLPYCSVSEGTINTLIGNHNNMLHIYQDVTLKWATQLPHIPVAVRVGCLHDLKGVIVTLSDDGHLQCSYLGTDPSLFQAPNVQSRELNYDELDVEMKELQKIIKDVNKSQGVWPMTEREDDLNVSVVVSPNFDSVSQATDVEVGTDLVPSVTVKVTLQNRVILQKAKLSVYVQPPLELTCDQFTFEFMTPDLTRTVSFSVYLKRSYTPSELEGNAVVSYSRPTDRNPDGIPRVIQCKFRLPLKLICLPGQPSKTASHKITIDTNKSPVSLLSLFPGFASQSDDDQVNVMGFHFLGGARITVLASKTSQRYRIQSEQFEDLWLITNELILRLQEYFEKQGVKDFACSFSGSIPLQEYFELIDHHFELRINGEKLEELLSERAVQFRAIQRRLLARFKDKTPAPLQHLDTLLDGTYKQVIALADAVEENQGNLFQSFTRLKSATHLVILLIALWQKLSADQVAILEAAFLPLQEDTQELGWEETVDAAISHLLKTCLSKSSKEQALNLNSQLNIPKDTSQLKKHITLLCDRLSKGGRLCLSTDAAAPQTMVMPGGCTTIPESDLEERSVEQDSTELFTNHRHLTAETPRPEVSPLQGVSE

Variants of: B1
Settings: with bbs4_human BBS4, Q96RK4

Row | Variant | effect of a mutation on the interaction
1 | E67S | disrupting interaction strength
2 | E67K | with no effect
3 | E67A | disrupting interaction strength
4 | M69K | with no effect
5 | M69A | with no effect
6 | M69E | with no effect
7 | T62K | with no effect
8 | T62A | with no effect
9 | T62S | disrupting interaction strength
10 | T62E | with no effect
11 | I90K | with no effect
12 | I90A | with no effect
13 | I90E | with no effect
14 | L58K | with no effect
15 | L58A | with no effect
16 | L58E | with no effect
17 | Q80A | with no effect
18 | Q80E | with no effect
19 | Q80K | with no effect
20 | I77A | with no effect
21 | I77E | with no effect
22 | I77K | with no effect
23 | S60K | with no effect
24 | S60E | with no effect
25 | S60A | with no effect
26 | H92E | with no effect

Row | Variant | effect of a mutation on the interaction
27 | H92A | with no effect
28 | H92K | with no effect
29 | L56K | with no effect
30 | L61K | with no effect
31 | L61A | with no effect
32 | L61E | with no effect
33 | K65A | with no effect
34 | K65E | with no effect
35 | K68A | with no effect
36 | K68E | with no effect
37 | R78E | with no effect
38 | R78A | with no effect
39 | R78K | with no effect
40 | E84K | with no effect
41 | E84A | with no effect
42 | L63A | with no effect
43 | L63E | with no effect
44 | L63K | with no effect
45 | Q87K | with no effect
46 | Q87E | with no effect
47 | Q87A | with no effect
48 | H70K | with no effect
49 | H70A | with no effect
50 | H70T | disrupting interaction strength
51 | H70E | with no effect
52 | E81K | with no effect

Row | Variant | effect of a mutation on the interaction
53 | E81A | with no effect
54 | D86A | with no effect
55 | D86K | with no effect
56 | D86E | with no effect
57 | A83E | with no effect
58 | A83K | with no effect
59 | M82A | with no effect
60 | M82K | with no effect
61 | M82E | with no effect
62 | T76K | with no effect
63 | T76A | with no effect
64 | T76E | with no effect
65 | Q89A | with no effect
66 | Q89K | with no effect
67 | Q89E | with no effect
68 | T91K | with no effect
69 | T91E | with no effect
70 | T91A | with no effect
71 | Q74E | with no effect
72 | Q74A | with no effect
73 | Q74K | with no effect
74 | K85A | with no effect
75 | K85E | with no effect
76 | A72K | with no effect
77 | A72E | with no effect
78 | A72D | disrupting interaction strength

Row | Variant | effect of a mutation on the interaction
79 | E64A | with no effect
80 | E64K | with no effect
81 | N75A | with no effect
82 | N75E | with no effect
83 | N75K | with no effect
84 | R88A | with no effect
85 | R88E | with no effect
86 | R88K | with no effect
87 | L66A | with no effect
88 | L66E | with no effect
89 | L66K | with no effect
90 | Q71A | with no effect
91 | Q71E | with no effect
92 | Q71R | disrupting interaction strength
93 | Q71K | with no effect
94 | Q79A | with no effect
95 | Q79E | with no effect
96 | Q79K | with no effect
97 | A73K | with no effect
98 | A73E | with no effect
99 | P57R | disrupting interaction strength
100 | P57A | with no effect
101 | P57K | with no effect
102 | P57E | with no effect
103 | K59A | with no effect
104 | K59E | with no effect

Variants of: B2
Settings: with pthb1_human BBS9, Q3SYG4

Row | Variant | effect of a mutation on the interaction
105 | P542E | with no effect
106 | F452C | disrupting interaction strength
107 | L458K | with no effect
108 | T446A | with no effect
109 | E441K | with no effect
110 | L539K | disrupting interaction strength
111 | V552E | disrupting interaction strength
112 | L530N | disrupting interaction strength
113 | L530K | disrupting interaction strength
114 | L540K | disrupting interaction strength
115 | Y523K | with no effect
116 | Y523E | disrupting interaction strength
117 | G516K | with no effect
118 | Q469E | with no effect
119 | L590K | with no effect
120 | T480A | with no effect
121 | Q437E | with no effect
122 | V541E | with no effect
123 | G559A | with no effect
124 | V435A | with no effect
125 | V435L | disrupting interaction strength
126 | V435K | with no effect
127 | K536E | with no effect
128 | A470K | with no effect
129 | A470E | with no effect

Row | Variant | effect of a mutation on the interaction
130 | L471A | with no effect
131 | L471K | with no effect
132 | L471E | with no effect
133 | F521K | disrupting interaction strength
134 | N507K | with no effect
135 | A464K | with no effect
136 | H504A | with no effect
137 | P418K | with no effect
138 | L468E | with no effect
139 | P417K | with no effect
140 | L548K | with no effect
141 | R440K | with no effect
142 | V537K | disrupting interaction strength
143 | R460K | with no effect
144 | L475E | with no effect
145 | T502K | with no effect
146 | V568A | disrupting interaction strength
147 | Q453A | with no effect
148 | M584A | with no effect
149 | F534E | with no effect
150 | F534A | with no effect
151 | F535K | with no effect
152 | K487A | with no effect
153 | A482E | with no effect
154 | A482K | with no effect

Row | Variant | effect of a mutation on the interaction
155 | R532K | with no effect
156 | R462A | with no effect
157 | S529A | with no effect
158 | D455K | with no effect
159 | A593E | with no effect
160 | N557K | with no effect
161 | V582K | with no effect
162 | Q493K | with no effect
163 | P547A | with no effect
164 | R483A | with no effect
165 | H489E | with no effect
166 | Y546A | with no effect
167 | E414A | with no effect
168 | L569K | with no effect
169 | M423E | with no effect
170 | E525A | with no effect
171 | A575E | with no effect
172 | D562A | with no effect
173 | V514A | with no effect
174 | V514E | with no effect
175 | R429K | with no effect
176 | S479E | with no effect
177 | L488K | with no effect
178 | L518P | disrupting interaction strength
